According to patent US20190183966A1 (EXTEND BIOSCIENCES, published 2019):

T1: PTH1 receptor expressed on mammalian cells (UniProt Q03431 27-593, limits assumed)
T1 sequence (looked up): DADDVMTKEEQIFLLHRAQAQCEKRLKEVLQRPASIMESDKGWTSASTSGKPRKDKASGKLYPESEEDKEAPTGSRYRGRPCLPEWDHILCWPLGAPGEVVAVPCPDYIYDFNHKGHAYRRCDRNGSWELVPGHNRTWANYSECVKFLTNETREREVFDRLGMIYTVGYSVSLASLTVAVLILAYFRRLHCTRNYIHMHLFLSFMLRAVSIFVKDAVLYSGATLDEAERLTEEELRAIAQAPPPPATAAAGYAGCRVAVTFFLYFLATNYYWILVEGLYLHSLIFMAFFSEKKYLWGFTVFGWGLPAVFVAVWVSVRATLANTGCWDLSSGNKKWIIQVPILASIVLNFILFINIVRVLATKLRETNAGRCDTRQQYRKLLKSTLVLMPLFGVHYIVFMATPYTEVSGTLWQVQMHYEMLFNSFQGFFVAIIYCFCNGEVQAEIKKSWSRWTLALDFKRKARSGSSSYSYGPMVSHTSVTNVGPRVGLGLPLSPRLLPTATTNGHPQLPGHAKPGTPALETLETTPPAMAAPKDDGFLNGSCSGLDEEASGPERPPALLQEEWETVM


Experiments:
[1] = molecular target: T1, PTH1 receptor expressed on mammalian …; experiment: cell-based or functional assay
[2] = molecular target: human GLP-1 receptor (GLP1R) stably expressed on PathHunter cells (human, UniProt P43220 24-463); experiment: cell-based or functional assay

| Calcium EC50 [1] | cAMP EC50 [1] | EC50, recruitment of beta-Arrestin [2] | Binder |
| --- | --- | --- | --- |
| 14 nM | 0.0186 nM |  | SVSEIQLMHNLGKHLNSMERVEWLRKKLQDVHNFC (C-terminal cysteine thiol conjugated to VitD-(3)-PEG2K-maleimide carrier) [PTH-C-PEG2K-(3)-VitD] |
|  |  | 510 nM | HAEGTFTSDVSSYLEGQAAKEFIAWLVKGRGC (C-terminal cysteine thiol conjugated to VitD-(25)-PEG2K-maleimide carrier) [GLP-1-C-PEG2K-(25)-VitD] |
|  |  | 520 nM | HAEGTFTSDVSSYLEGQAAKEFIAWLVKGRGC (C-terminal cysteine thiol conjugated to VitD-(3)-PEG2K-maleimide carrier) [GLP-1-C-PEG2K-(3)-VitD] |
